Experimental findings from patent publication US20090029924A1 are described below.

The target in this assay is Recombinant human furin (human), P09958. The assay is described as follows: furin, Pyr-RTKR-AMC cleavage.
Recombinant human furin (human), P09958, sequence (P09958 108-714 limits assumed): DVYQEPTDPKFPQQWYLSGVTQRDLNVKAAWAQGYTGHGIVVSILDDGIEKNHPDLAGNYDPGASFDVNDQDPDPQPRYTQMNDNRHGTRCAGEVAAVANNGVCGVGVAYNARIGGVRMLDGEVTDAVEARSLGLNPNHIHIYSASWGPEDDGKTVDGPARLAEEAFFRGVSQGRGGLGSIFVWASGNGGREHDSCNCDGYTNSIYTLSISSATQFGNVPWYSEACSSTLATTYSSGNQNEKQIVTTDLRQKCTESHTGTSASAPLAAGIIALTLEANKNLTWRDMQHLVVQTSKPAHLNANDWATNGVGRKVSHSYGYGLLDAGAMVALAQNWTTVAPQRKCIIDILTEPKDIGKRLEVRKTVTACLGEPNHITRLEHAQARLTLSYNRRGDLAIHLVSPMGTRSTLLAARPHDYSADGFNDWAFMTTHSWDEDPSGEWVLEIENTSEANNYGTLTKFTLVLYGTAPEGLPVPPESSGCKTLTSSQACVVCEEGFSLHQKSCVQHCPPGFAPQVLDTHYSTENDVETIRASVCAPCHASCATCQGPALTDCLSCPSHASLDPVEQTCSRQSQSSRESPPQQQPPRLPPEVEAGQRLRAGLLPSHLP
Consider RRRKKRT (modifications not checked), for which the Ki amounted to 17.6 nM.
For the molecule RRKKRT (modifications not checked), the Ki is 32.5 nM.
On to RKKRT (modifications not checked), for which the inhibition constant Ki came to 1000 nM.
In the case of TPRERRRKAAV (modifications not checked) […] it was over 100 nM.

A word on the Ki: it is the dissociation constant of the complex between target and ligand, obtained from inhibition or displacement.
